Data: patent publication US20220195015A1 (published 2022)
Changes are numbered by the printed parent chain.

Biological target: SARS-CoV-2 spike receptor binding domain (RBD), S protein residues 319-539 (SARS-CoV-2, UniProt P0DTC2 319-539)
Assay: ELISA on coated RBD

B1: C513 (antibody, V domains shown)
VH: EVQLLESGGGLVQPGGSLRLSCVASGFSFSTYAMSWVRQAPGQGLEWVSTITGTSIGTYYADSVKGRFTISRDNSKNTVFLQMKSLRAEDAAVYYCANHPLASGDEYYYYYMDVWGKGTTVTVSS
VL: EIVLTQSPDTLSLSPGERATLSCRASQSVHSKQLAWYQQKPGQAPRLLIYGASSRATGIPDRFSGSGSGTDFTLTISRLEPEDFAVYYCQQYGSIRALTFGGGTKVEIK
EC50: 1.31 ng/mL

B2: C515 (antibody, V domains shown)
VH: EVQLVESGGGLVQPGGSLRLSCAASGFIVSSNYMSWVRQAPGKGLEWVSILYSGGSTYYADSVKGRFTISRDNSKNTLYLQMNSLRAEDTAVYYCARDLVVYGADYWGQGTLVTVSS
VL: DIQLTQSPSFLSASVGDRVTITCRASQGISSYLAWYQQKPGKAPKLLIYAASTLQSGVPSRFSGSGSGTEFTLTISSLQPEDFATYYCQQLNSYPPPFGGGTKVEIK
EC50: 1.73 ng/mL

B3: C511 (antibody, V domains shown)
VH: EVQLVESGGGLVQPGGSLRLSCAATEITVSSNYMTWVRQAPGKGLEWVSVIYPGGSTFYADSVKGRFSISRDNSKNTLYLQMNSLRAEDTAVYYCARDLVVYGLDCWGQGTLVTVSS
VL: B2 VL with S93T
EC50: 1.33 ng/mL

B4: C516 (antibody, V domains shown)
VH: QVQLVQSGAEVKKPGSSVKVSCKASGGTFSSYAISWVRQAPGQGLEWMGRIIPMLVIATYARKFQGRVTITADKSTSTAYMELSSLRSEDTAVYYCARGVVAATPGNFDIWGQGTMVTVSS
VL: EIVMTQSPATLSVSPGERATLSCRASQSVSSNLAWYQQKPGQAPRLLIYGASTRATGIPARFSGSGSGTEFTLTISSLQSEDFAVYYCQQYNNGLTFGGGTKVEIK
EC50: 5.72 ng/mL

B5: C502 (antibody, V domains shown)
VH: QVQLVQSGAEVKKPGSSVKVSCKASGDTFSSHAINWVRQAPGQGLEWMGRSIPMLGVTTSAQKFKGRVTITADHSTSTVFMDLSSLRSDDTAIYYCARGVVGATPGSFDLWGQGTMVTVSS
VL: B4 VL with E17K, S30R, K39R, G50D, S52A, A60T, N92D
EC50: 6.48 ng/mL

B6: C517 (antibody, V domains shown)
VH: EVQLVESGGGLVQPGGSLRLSCAASEFIVSRNYMSWVRQAPGKGLEWVSLIYSGGSTYYADSVKGRFTISRDNSKNTLYLQMNSLRAEDTAMYYCARDIAGRLDYWGQGTLVTVSS
VL: DIQMTQSPSSLSASVGDRVTITCQASQDISKYLNWYQQKPGKAPKLLIYDASNLETGVPSRFSGSGSGTDFTFTISSLQPEDFATYYCQHYDSLSRLTFGGGTKVEIK
EC50: 0.87 ng/mL

B7: C514 (antibody, V domains shown)
VH: B6 VH with S30T, S53P, Y58F, Y79F, Q81H, M92V, I99L
VL: B6 VL with S30N, K31N, Y32F, F83I, T85I, H90Q
EC50: 0.82 ng/mL

B8: C597 (antibody, V domains shown)
VH: QVQLVQSGPEVKKPGTSVKVSCKASGFTFTNSAVQWVRQSRRQRLEWIGWIVVGSGNTNYAQKFQERVTITRDMSTSTAYMELSSLRSEDTAVYYCAAVDCNSTSCYDAFDIWGQGTMVTVSS
VL: EIVLTQSPGTLSLSPGERATLSCRASQSFRSSYLAWYQQKPGQAPRLLIYGASSRATGIPDRFSGSGSGSDFTLTISRLEPEDFAVYYCQQYDISPWTFGQGTKVEIK
EC50: 3.77 ng/mL

B9: C598 (antibody, V domains shown)
VH: QVQLVQSGPEVKKPGTSVKVSCKASGFTFSSSAVQWVRQARGQRLEWIGWIVVGSGNTNYAQKFQERVTITRDMSTSTAYMELSSLRSEDTAVFYCAAPYCNVTTCFDGFNIWGRGTMVTVSS
VL: B8 VL with F29V, L34F, G51A, S70T, V86L, D93G, I94S
EC50: 3.78 ng/mL

B10: C503 (antibody, V domains shown)
VH: QVQLQESGPGLVQPSGTLSLSCTVTGGSISSNNWWSWVRQSPVKGLEWIGEIYHNGNINYNPSLKSRVTMSIDKSKNHFSLKLSSVTAADTAVYYCARGDVLDWFDPWGQGTLVTVS
VL: QSALTQPASVSGSPGQSITFSCTGTSSDVGAYNYISWYQQHPGKAPKLMIYDVNNRPSGVSRRFSGSKSGNTASLTISGLQSEDEADYFCSSYAGNSTVRFGGGTKLTVL
EC50: 6.48 ng/mL

B11: C504 (antibody, V domains shown)
VH: QVQLQESGPGLVKPSETLSLTCTVSGGSISSSYWNWIRQSPGKGLEWIGYIYYDGYTTFNPSLKSRVTISVDTSKNQFSLKLSSVTAADTAFYYCAAGLKGRSSSWYEYWGQGTLVTVSS
VL: DIQMTQSPSSLSASVGDRVTITCRASQSISSYLNWYQQKPGKAPKLLIYATSSLQSGVPSRFSGSGSGTDFTLTITSLQPEDFATYYCQQTYSSPHTFGQGTKLEIK
EC50: 6.55 ng/mL

B12: C505 (antibody, V domains shown)
VH: EVQLLESGGGLVQPGGSLRLSCADSGFSFSTYGMSWVRQAPGKGLEWVSTISGSGDNTYHADSVKGRFTISRDNSKNTLYLQMNSLRAEDTAVYYCAKNIAEMSTFDDYFYYYGMDVWGQGTTVTVSS
VL: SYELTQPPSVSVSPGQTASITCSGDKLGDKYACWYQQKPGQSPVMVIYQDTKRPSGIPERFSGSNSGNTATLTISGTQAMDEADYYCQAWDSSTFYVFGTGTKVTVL
EC50: 9.08 ng/mL

B13: C506 (antibody, V domains shown)
VH: EVQLVESGGGLVQPGGSLRLSCAASGFTFSSYDMHWVRQGTGKGLEWVSVIGTAGDAYYPGSVKGRFTISRENAKNSLYLQMNSLRAGDTAVYYCARMVYDSSGFKGYFDLWGRGTLVTVSS
VL: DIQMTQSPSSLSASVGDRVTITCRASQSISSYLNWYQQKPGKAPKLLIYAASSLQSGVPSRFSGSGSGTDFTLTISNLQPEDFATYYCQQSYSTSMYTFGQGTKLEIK
EC50: 16 ng/mL

B14: C510 (antibody, V domains shown)
VH: QVQLQQWGAGLLKPSETLSRTCAVYGGSFSGYYWSWFRQSPGKGLEWIGEINHSGSTNYNPSLKNRVTISVDTSKNQFSLMLSSVTAADTAVYYCARGGFGVVINYYYSGMDVWGRGTTVTVSS
VL: not shown
EC50: 5.94 ng/mL

B15: C507 (antibody, V domains shown)
VH: EVQLVESGGGVVQPGRSLRLSCAASGFTFSSYAIHWVRQAPGKGLEWVAVISFDGSNKYYRDSVKGRFTISRDNGKNTLYLQMNSLRAEDTAVYYCAKAALGYCTNGVCYCDNWGQGTLVTVSS
VL: NFMLTQPHSVSESPGKTVTISCTGSSGSIASNYVQWYQQRPGSAPTTVIYEDNQRPSGVPDRFSGSIDSSSNSASLSISGLKTEDEADYYCQSYDINSLWVFGGGTRLTVL
EC50: 5.6 ng/mL

B16: C509 (antibody, V domains shown)
VH: QVQLQESGPGLVKPSGTLSLTCAVSGGSISSSNWWSWVRQPPGKGLEWIGEIYNSGSTNYNPSLKSRVTILVDKSKNQFSLKLSSVTAADTAVYYCAGSYSNYIGGVWFDPWGQGTLVTVSS
VL: EIVLTQSPATLSLSPGERATLSCRASQSVSTYLAWYQQKPGQAPRLLIYDASNRATGIPARFSGSGSGTDFTLTISSLEPEDFAVYYCQQRNNWLTFGGGTKVEIK
EC50: 4.44 ng/mL

B17: C539 (antibody, V domains shown)
VH: EVQLVESGGGLVQPGRSLRLSCAASGFTFDDYALHWVRQAPGKGLEWVSGISWNGDSIGYADSVKGRFTISRDNAKNSLSLQMNSLTAEDTALYYCAKGVEYSSSSNCDYWGQGTLVTVSS
VL: DIQMTQSPSSVSASVGDRVTITCRASQDISSWLAWYQQKPGKAPKLLISLASGLQSGVPSRFSGSGSETDFTLTISSLQPEDFATYYCQQTNSFPLTFGGGTKVEI
EC50: 1.3 ng/mL

B18: C540 (antibody, V domains shown)
VH: EVQLVESGGGLVQPGGSLRLSCAASGFTFRNYDMHWVRQVAGKGLEWVSAIGTSGDTYYPDSVKGRFTISRENAKNSVYLQMNNLRAGDTAVYFCVRDREISGWTGWYFDLWGRGTLVTVSS
VL: DIQMTQSPSSLSASVGDRVTITCRASQTIHNYLNWYQQIPGKAPRLLIYATNTLQSGVPSRFSGSGSGTDFTLTITGLQPEDFATYYCQQSYSTPPITFGQGTRLEIK
EC50: 2.9 ng/mL
